Source: patent US20090252729A1 (Biogen, published 2009)

How the values were obtained:
[1] = biological target: T1, human LTα1β2 on phorbol myristate acetate activated II-23 cells (human, UniProt P01374 35-205; Q06643 1-244); assay: FACS direct binding on PMA-activated II-23 cells, mean fluorescence (MFI)
T1 construct: whole, on cells
T1 sequence (looked up) 1: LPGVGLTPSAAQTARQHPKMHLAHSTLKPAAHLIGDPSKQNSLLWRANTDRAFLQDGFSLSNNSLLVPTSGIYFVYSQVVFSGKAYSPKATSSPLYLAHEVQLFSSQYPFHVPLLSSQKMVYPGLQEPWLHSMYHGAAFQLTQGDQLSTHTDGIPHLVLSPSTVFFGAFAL
T1 sequence (looked up) 2: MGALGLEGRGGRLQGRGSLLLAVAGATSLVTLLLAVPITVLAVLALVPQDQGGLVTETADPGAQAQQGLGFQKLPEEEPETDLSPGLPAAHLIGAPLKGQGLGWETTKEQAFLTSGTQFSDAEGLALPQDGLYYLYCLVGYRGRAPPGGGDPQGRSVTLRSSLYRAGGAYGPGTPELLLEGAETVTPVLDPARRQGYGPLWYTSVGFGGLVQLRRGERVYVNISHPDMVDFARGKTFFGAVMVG
Method: The binding affinity of the monomeric LTβR:scFc was also evaluated by FACS analysis (FIG. 59B). FACS was done on II-23 cells according to the methods of Eldredge et al. (Eldredge, Berkowitz et al. 2006). FACS binding assays using flow cytometry were done according to the method previously described (Force, Walter et al. 1995). Briefly, in direct binding assays human LTα1β2 was detected on phorbol myristate acetate activated II-23 cells (American Type Culture Collection (ATCC) Manassas, Va.) in FACS buffer with varied concentrations of either the LTβRIgG or biotinylated LTβRIgG (bLTβRIgG). Cells were incubated on ice for 1-2 h then washed with PBS and centrifuged. The appropriate steptavidin phycoerythrin or anti-hFc phycoerythrin labeled secondary (Molecular Probes, Eugene, Oreg.) in FACS buffer was added and incubated with the cells for an additional 1 h and washed again. The fluorescent staining of the cellular bound LTβRIgG on the II-23 cells was quantified by determining the mean channel fluorescence by FACS. Both the FACS and ELISA show the LTβRscFc has a reduced binding affinity compared with LTβRIgG.

[2] = biological target: T2, LTα1β2 (coated on ELISA plates) (Homo sapiens (Human), UniProt P01374 35-205; Q06643 49-244, Heterotrimer of one alpha and two beta chains, as the name says.); assay: ELISA on plates coated with 5 ug/ml LTα1β2, detected with anti-human HRP secondary antibody. The value is parameter C (midpoint) of the four-parameter fit y = ((A-D)/(1+(x/C)^B))+D printed under the plot. The unit is taken from the x axis.
T2 construct: Heterotrimer of one alpha and two beta chains by its name; also called LTa1β2; copies: 1 + 1
T2 sequence (alpha): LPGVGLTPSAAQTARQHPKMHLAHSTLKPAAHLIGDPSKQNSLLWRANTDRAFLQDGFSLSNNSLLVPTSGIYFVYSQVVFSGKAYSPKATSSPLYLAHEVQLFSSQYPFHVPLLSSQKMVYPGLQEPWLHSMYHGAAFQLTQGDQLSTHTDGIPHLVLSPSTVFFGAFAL
T2 sequence (beta): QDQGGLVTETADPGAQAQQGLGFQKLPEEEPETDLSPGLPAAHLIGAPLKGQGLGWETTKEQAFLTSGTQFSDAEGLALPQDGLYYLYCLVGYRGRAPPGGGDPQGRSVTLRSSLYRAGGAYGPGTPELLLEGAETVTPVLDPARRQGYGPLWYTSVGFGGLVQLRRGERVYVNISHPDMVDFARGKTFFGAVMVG
Method: FIG. 59A depicts the results of an ELISA evaluating the binding affinity of the monomeric LTβR:scFc to LTα1β2. ELISA plates were coated overnight at 4° C. with 5 ug/ml LTα1β2 in PBS. Plates were then blocked with 1% Casein in 10 mM PBS, pH 7.0, then washed with 10 mM PBS, pH 7.0, 0.1% Tween 20 (wash buffer) three times. LTβR:IgG or LTBβ:scFc serially diluted into 10 mM PBS, 362 mM NaCl, 0.055 Tween-20, 0.1% Casein, 5% FBS pH 7.0 (assay diluent) and incubated for 1 h, then washed with wash buffer. To each well was added Donkey anti-human heavy and light specific HRP (Jackson Labs) conjugated secondary antibody diluted 1:5000 in assay diluents for 60 min then washed with PBS. The HRP was developed using tetramethybenzidine and hydrogen peroxide in 100 mM NaAcetate pH 4.0 after several minutes, the assay was stopped by the addition of 100 uL of 1N sulfuric acid and sample absorbance read at 450 nm.

[3] = biological target: T3, human FcRIII-GST (CD16a, V158) (human, UniProt P08637 17-208, limits assumed); assay: Alphascreen assay, human FcγR CD16a
T3 construct: also called human FcγRIII; FcγRIII (CD16a); not shown: GST tag
Method: (§1) The ability of scFc antibodies comprising GGGGS (“1×-G4S”) or (GGGS)3 (“3×-G4S”) linkers to engage Fcγ receptors was also evaluated in an Amplified Luminescent Proximity Homogeneous Assay (Alphascreen®; Perkin Elmer). Laser excitation (680 nm) of a donor bead generates singlet oxygen which, if in close proximity to an acceptor bead, initiates a cascase of events ultimately leading to fluorescence emission at 520-620 nm. Donor and acceptor beads decorated with ligand and receptor proteins, respectively, are brought into desired proximity only when the receptor and ligand become functionally engaged.
(§2) The Alphascreen® assay was performed in a competitive format in which serial dilutions of test antibodies (WT IgG1 or scFc) were incubated with human FcRIII-GST (CD16a, V158) and anti-GST acceptor beads overnight at 4° C. in a 96-well white plate. Streptavidin donor beads and biotinylated wild-type IgG1 were also incubated overnight at 4° C. in a separate tube and then added to the assay plate the next day. After a two-hour incubation at room temperature with gentle shaking the plates were read in an Envision® plate reader (Perkin Elmer).

human FcγR IIb (CD32b) = biological target: T4, human FcγR IIb (CD32b) (human, UniProt P31994 43-217, limits assumed); assay: Alphascreen assay, human FcγR CD32b
T4 sequence (looked up): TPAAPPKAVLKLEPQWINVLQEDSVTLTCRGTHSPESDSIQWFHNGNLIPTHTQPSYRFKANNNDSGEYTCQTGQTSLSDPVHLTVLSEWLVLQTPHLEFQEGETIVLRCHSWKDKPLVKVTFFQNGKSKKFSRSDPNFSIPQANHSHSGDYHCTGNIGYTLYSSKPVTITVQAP

human FcγR IIa (CD32a) = biological target: T5, human FcγR IIa (CD32a) (human, UniProt P12318 34-217, limits assumed); assay: Alphascreen assay, human FcγR CD32a (R)
T5 sequence (looked up): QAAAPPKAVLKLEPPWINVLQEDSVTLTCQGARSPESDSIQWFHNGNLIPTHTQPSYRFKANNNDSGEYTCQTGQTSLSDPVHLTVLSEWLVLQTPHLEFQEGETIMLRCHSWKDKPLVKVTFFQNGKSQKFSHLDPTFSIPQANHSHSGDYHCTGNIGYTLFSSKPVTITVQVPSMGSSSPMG

[4] = biological target: cynomolgus FcγR III (CD16a) (cynomolgus, UniProt Q8SPW2 17-208, limits assumed); assay: Alphascreen assay, cynomolgus FcγR CD16a
[5] = biological target: T6, cynomolgus FcγR IIb (CD32b) (cynomolgus, UniProt A0A140HDP4 43-217); assay: Alphascreen assay, cynomolgus FcγR CD32b
T6 sequence: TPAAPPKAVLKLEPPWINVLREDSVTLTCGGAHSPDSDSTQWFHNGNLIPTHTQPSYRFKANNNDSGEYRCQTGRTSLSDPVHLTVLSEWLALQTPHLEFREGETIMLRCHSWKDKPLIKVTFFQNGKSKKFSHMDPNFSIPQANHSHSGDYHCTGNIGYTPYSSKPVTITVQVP

[6] = biological target: T7, cynomolgus FcγR IIa (CD32a) (cynomolgus, UniProt A0A140HDN0 28-215); assay: Alphascreen assay, cynomolgus FcγR CD32a (R)
T7 sequence: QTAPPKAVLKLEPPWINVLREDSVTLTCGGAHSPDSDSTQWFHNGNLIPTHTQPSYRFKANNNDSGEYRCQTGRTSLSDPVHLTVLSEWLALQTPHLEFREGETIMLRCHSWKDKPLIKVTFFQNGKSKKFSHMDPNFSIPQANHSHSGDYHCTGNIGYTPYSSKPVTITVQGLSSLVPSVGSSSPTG

[7] = biological target: T3, human FcRIII-GST (CD16a, V158); assay: Alphascreen competition assay, huCD16a V158-GST on anti-GST acceptor beads; competitor: biotinylated wild-type IgG1 on streptavidin donor beads; parameters: IC50 (read off the curve): unit not given here
Method: as §1, §2

[8] = biological target: T3, human FcRIII-GST (CD16a, V158); assay: Alphascreen
Method: as §1, §2

[9] = biological target: T3, human FcRIII-GST (CD16a, V158); assay: Alphascreen, competitive format, competitor biotinylated wild-type IgG1
Method: as §1, §2

Row | Binder | EC50 (read off the curve) [1] [µg/mL] | EC50 [2] [µg/mL] | EC50 [3] [nM] | EC50 (human FcγR IIb (CD32b)) [nM] | EC50 (human FcγR IIa (CD32a)) [nM] | EC50 [4] [nM] | EC50 [5] [nM] | EC50 [6] [nM] | EC50 [7] [nM] | fold weaker binding against WT IgG1 [8] [fold] | fold lower affinity against fully glycosylated WT human IgG1 [9] [fold] | IC50 (read off the curve) [7]
1 | LTβR:IgG, dimeric (Fc fusion, not shown: a dimerising Fc or GST; small tags and cut ends, Dimeric through its Fc, which is left out. A biotinylated form (bLTβRIgG) was also used in FACS., Conventional dimeric receptor-Fc fusion used as the comparator; also called bLTβRIgG (biotinylated)) QAVPPYASENQTCRDQEKEYYEPQHRICCSRCPPGTYVSAKCSRIRDTVCATCAENSYNEHWNYLTICQLCRPCDPVMGLEEIAPCTSKRKTQCRCQPGMFCAAWALECTHCELLSDCPPGTEAELKDEVGKGNNHCVPCKAGHFQNTSSPSARCQPHTRCENQGLVEAAPGTAQSDTTCKNPLEPLPPEMSGTMLM | ~0.1 | 0.028 | – | – | – | – | – | – | – | – | – | –
2 | Hu5C8, conventional human IgG1 anti-CD40L antibody (antibody, N-glycan at EU N297; biotinylated (sites not given) in the CD40L ELISA, Human IgG1, fully glycosylated, bivalent; Biotinylated in the CD40L ELISA; also called WT 5c8 hIgG1; WT 5C8 hIgG1) heavy: not shown light: DIVLTQSPATLSVSPGERATISCRASQRVSSSTYSYMHWYQQKPGQPPKLLIKYASNLESGVPARFSGSGSGTDFTLTISSVEPEDFATYYCQHSWEIPPTFGGGTKLEIKRTVAAPSVFIFPPSDEQLKSGTASVVCLLNNFYPREAKVQWKVDNALQSGNSQESVTEQDSKDSTYSLSSTLTLSKADYEKHKVYACEVTHQGLSSPVTKSFNRGEC | – | – | 22 | 292 | 511 | 37 | 52 | 359 | 12 | – | – | –
3 | 1×G4S-linked hemiglycosylated 5C8 scFc IgG1 antibody (pEAG2066) (antibody, plasmid not given; also called hemi-glycosylated 1×-G4S linked scFc; 1×G4S linked scFc) heavy: not shown light: DIVLTQSPATLSVSPGERATISCRASQRVSSSTYSYMHWYQQKPGQPPKLLIKYASNLESGVPARFSGSGSGTDFTLTISSVEPEDFATYYCQHSWEIPPTFGGGTKLEIKRTVAAPSVFIFPPSDEQLKSGTASVVCLLNNFYPREAKVQWKVDNALQSGNSQESVTEQDSKDSTYSLSSTLTLSKADYEKHKVYACEVTHQGLSSPVTKSFNRGEC | – | – | – | – | – | – | – | – | 689 | ~60 | ~57 | ~70
4 | 3×G4S-linked hemiglycosylated 5C8 scFc IgG1 antibody (pASK043) (antibody, One heavy scFc chain and one light chain (monovalent); also called monovalent 3×G4S-linked hemiglycosylated scFc; hemi-glycosylated 3×-G4S linked scFc) heavy: not shown light: DIVLTQSPATLSVSPGERATISCRASQRVSSSTYSYMHWYQQKPGQPPKLLIKYASNLESGVPARFSGSGSGTDFTLTISSVEPEDFATYYCQHSWEIPPTFGGGTKLEIKRTVAAPSVFIFPPSDEQLKSGTASVVCLLNNFYPREAKVQWKVDNALQSGNSQESVTEQDSKDSTYSLSSTLTLSKADYEKHKVYACEVTHQGLSSPVTKSFNRGEC | – | – | 59 | 552 | 949 | 89 | 72 | 221 | 77 | – | ~4 | –
5 | 3×G4S-linked fully glycosylated 5C8 scFc IgG1 antibody (ASK048) (antibody, also called fully glycosylated 3×G4S linked scFc) heavy: not shown light: DIVLTQSPATLSVSPGERATISCRASQRVSSSTYSYMHWYQQKPGQPPKLLIKYASNLESGVPARFSGSGSGTDFTLTISSVEPEDFATYYCQHSWEIPPTFGGGTKLEIKRTVAAPSVFIFPPSDEQLKSGTASVVCLLNNFYPREAKVQWKVDNALQSGNSQESVTEQDSKDSTYSLSSTLTLSKADYEKHKVYACEVTHQGLSSPVTKSFNRGEC | – | – | 18 | 183 | 304 | 32 | 17 | 206 | – | – | – | –
